# Starred links: 1 amine or outer side, 2 acyl side, 3 side chain; linkers in the order of their positions; H or OH if unused. Positions of bridges follow the written chain, without caps; N, C: chain ends. *: point of attachment. X1 = (S)‑4‑Carboxy‑4‑(19-carboxynonadecanoylamino)butyryl, O=C(O)CCCCCCCCCCCCCCCCCCC(=O)N[C@@H](CCC(=O)*)C(=O)O; C20 diacid = O=C(O)CCCCCCCCCCCCCCCCCCC(=O)*; γGlu = O=C(O)[C@H](CCC(=O)[*:2])N[*:1]
# T1: human amylin 3(a) receptor (human calcitonin receptor + RAMP-3) (human, UniProt P30988 25-474; O60896 24-148)
# T1 sequence (looked up) 1: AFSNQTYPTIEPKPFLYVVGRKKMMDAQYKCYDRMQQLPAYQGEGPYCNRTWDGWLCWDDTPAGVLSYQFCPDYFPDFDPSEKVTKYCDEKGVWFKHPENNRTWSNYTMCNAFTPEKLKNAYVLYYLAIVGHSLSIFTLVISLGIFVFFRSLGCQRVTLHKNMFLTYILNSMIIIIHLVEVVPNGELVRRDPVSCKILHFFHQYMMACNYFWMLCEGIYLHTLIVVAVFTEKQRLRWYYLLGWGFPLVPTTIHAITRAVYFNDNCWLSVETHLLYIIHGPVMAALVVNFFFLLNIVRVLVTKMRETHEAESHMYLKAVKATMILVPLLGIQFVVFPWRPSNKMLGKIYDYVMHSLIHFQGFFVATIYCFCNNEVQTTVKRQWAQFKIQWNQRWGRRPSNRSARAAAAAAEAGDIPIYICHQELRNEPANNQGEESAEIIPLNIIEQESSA
# T1 sequence (looked up) 2: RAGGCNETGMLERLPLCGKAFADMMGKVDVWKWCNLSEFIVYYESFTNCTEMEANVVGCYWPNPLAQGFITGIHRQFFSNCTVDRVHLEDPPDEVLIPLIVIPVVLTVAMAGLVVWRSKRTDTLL
# T2: human calcitonin (a) receptor (human, UniProt P30988 25-474)
# T2 sequence (looked up): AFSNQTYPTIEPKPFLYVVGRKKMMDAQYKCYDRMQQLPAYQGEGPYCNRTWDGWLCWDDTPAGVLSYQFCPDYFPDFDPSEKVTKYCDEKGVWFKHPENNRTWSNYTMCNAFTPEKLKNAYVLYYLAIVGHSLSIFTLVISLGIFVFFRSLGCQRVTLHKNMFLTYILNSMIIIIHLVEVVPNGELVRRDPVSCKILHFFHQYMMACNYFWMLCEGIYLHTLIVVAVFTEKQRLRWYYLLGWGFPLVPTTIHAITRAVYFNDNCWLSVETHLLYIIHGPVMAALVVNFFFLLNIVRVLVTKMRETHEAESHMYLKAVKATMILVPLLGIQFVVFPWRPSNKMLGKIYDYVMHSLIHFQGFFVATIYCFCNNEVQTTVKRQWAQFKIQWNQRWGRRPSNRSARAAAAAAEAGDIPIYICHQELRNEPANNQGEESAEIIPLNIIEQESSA
# Experiments:
# [1] = biological target: T1, human amylin 3(a) receptor (human …); experiment: cell-based or functional assay
# [2] = biological target: T2, human calcitonin (a) receptor; experiment: cell-based or functional assay
Amylin receptor human EC50 [1] [nM],CTa receptor human EC50 [2] [nM],Binder
0.0625,0.0705,"{C20 diacid-γGlu}-SCNTATCATQRLAEFLHHSSNNFGPILPPTNVGSNTP-NH2 (disulfide 2-7; SMILES CC[C@H](C)[C@H](NC(=O)[C@@H]1CCCN1C(=O)CNC(=O)[C@H](Cc1ccccc1)NC(=O)[C@H](CC(N)=O)NC(=O)[C@H](CC(N)=O)NC(=O)[C@H](CO)NC(=O)[C@H](CO)NC(=O)[C@H](Cc1c[nH]cn1)NC(=O)[C@H](Cc1c[nH]cn1)NC(=O)[C@H](CC(C)C)NC(=O)[C@H](Cc1ccccc1)NC(=O)[C@H](CCC(=O)O)NC(=O)[C@H](C)NC(=O)[C@H](CC(C)C)NC(=O)[C@H](CCCNC(=N)N)NC(=O)[C@H](CCC(N)=O)NC(=O)[C@@H](NC(=O)[C@H](C)NC(=O)[C@@H]1CSSC[C@H](NC(=O)[C@H](CO)NC(=O)CC[C@H](NC(=O)CCCCCCCCCCCCCCCCCCC(=O)O)C(=O)O)C(=O)N[C@@H](CC(N)=O)C(=O)N[C@@H]([C@@H](C)O)C(=O)N[C@@H](C)C(=O)N[C@@H]([C@@H](C)O)C(=O)N1)[C@@H](C)O)C(=O)N[C@@H](CC(C)C)C(=O)N1CCC[C@H]1C(=O)N1CCC[C@H]1C(=O)N[C@H](C(=O)N[C@@H](CC(N)=O)C(=O)N[C@H](C(=O)NCC(=O)N[C@@H](CO)C(=O)N[C@@H](CC(N)=O)C(=O)N[C@H](C(=O)N1CCC[C@H]1C(N)=O)[C@@H](C)O)C(C)C)[C@@H](C)O) [N-alpha-[(S)-4-Carboxy-4-(19-carboxynonadecanoylamino)butyryl]-[Ser1,Glu14,His17,Pro37]-pramlintide]"
0.088,0.0735,"{C20 diacid-γGlu}-CNTATCATQRLAEFLVHSSNNFGPILPPTNVGSNTP-NH2 (disulfide 1-6; SMILES CC[C@H](C)[C@H](NC(=O)[C@@H]1CCCN1C(=O)CNC(=O)[C@H](Cc1ccccc1)NC(=O)[C@H](CC(N)=O)NC(=O)[C@H](CC(N)=O)NC(=O)[C@H](CO)NC(=O)[C@H](CO)NC(=O)[C@H](Cc1c[nH]cn1)NC(=O)[C@@H](NC(=O)[C@H](CC(C)C)NC(=O)[C@H](Cc1ccccc1)NC(=O)[C@H](CCC(=O)O)NC(=O)[C@H](C)NC(=O)[C@H](CC(C)C)NC(=O)[C@H](CCCNC(=N)N)NC(=O)[C@H](CCC(N)=O)NC(=O)[C@@H](NC(=O)[C@H](C)NC(=O)[C@@H]1CSSC[C@H](NC(=O)CC[C@H](NC(=O)CCCCCCCCCCCCCCCCCCC(=O)O)C(=O)O)C(=O)N[C@@H](CC(N)=O)C(=O)N[C@@H]([C@@H](C)O)C(=O)N[C@@H](C)C(=O)N[C@@H]([C@@H](C)O)C(=O)N1)[C@@H](C)O)C(C)C)C(=O)N[C@@H](CC(C)C)C(=O)N1CCC[C@H]1C(=O)N1CCC[C@H]1C(=O)N[C@H](C(=O)N[C@@H](CC(N)=O)C(=O)N[C@H](C(=O)NCC(=O)N[C@@H](CO)C(=O)N[C@@H](CC(N)=O)C(=O)N[C@H](C(=O)N1CCC[C@H]1C(N)=O)[C@@H](C)O)C(C)C)[C@@H](C)O) [N-alpha-[(S)-4-Carboxy-4-(19-carboxynonadecanoylamino)butyryl]-[des1,Glu14,Pro37]-pramlintide]"
0.0845,0.0725,"{C20 diacid-γGlu}-HCNTATCATQRLAEFLVHSSNNFGPILPPTNVGSNTP-NH2 (disulfide 2-7; SMILES CC[C@H](C)[C@H](NC(=O)[C@@H]1CCCN1C(=O)CNC(=O)[C@H](Cc1ccccc1)NC(=O)[C@H](CC(N)=O)NC(=O)[C@H](CC(N)=O)NC(=O)[C@H](CO)NC(=O)[C@H](CO)NC(=O)[C@H](Cc1c[nH]cn1)NC(=O)[C@@H](NC(=O)[C@H](CC(C)C)NC(=O)[C@H](Cc1ccccc1)NC(=O)[C@H](CCC(=O)O)NC(=O)[C@H](C)NC(=O)[C@H](CC(C)C)NC(=O)[C@H](CCCNC(=N)N)NC(=O)[C@H](CCC(N)=O)NC(=O)[C@@H](NC(=O)[C@H](C)NC(=O)[C@@H]1CSSC[C@H](NC(=O)[C@H](Cc2c[nH]cn2)NC(=O)CC[C@H](NC(=O)CCCCCCCCCCCCCCCCCCC(=O)O)C(=O)O)C(=O)N[C@@H](CC(N)=O)C(=O)N[C@@H]([C@@H](C)O)C(=O)N[C@@H](C)C(=O)N[C@@H]([C@@H](C)O)C(=O)N1)[C@@H](C)O)C(C)C)C(=O)N[C@@H](CC(C)C)C(=O)N1CCC[C@H]1C(=O)N1CCC[C@H]1C(=O)N[C@H](C(=O)N[C@@H](CC(N)=O)C(=O)N[C@H](C(=O)NCC(=O)N[C@@H](CO)C(=O)N[C@@H](CC(N)=O)C(=O)N[C@H](C(=O)N1CCC[C@H]1C(N)=O)[C@@H](C)O)C(C)C)[C@@H](C)O) [N-alpha-[(S)-4-Carboxy-4-(19-carboxynonadecanoylamino)butyryl]-[His1,Glu14,Pro37]-pramlintide]"
0.921,0.349,{C20 diacid-γGlu}-HCNTATCATQRLAEFLVHSSSNFGPILSSTNVGSHTY-NH2 (disulfide 2-7; SMILES CC[C@H](C)[C@H](NC(=O)[C@@H]1CCCN1C(=O)CNC(=O)[C@H](Cc1ccccc1)NC(=O)[C@H](CC(N)=O)NC(=O)[C@H](CO)NC(=O)[C@H](CO)NC(=O)[C@H](CO)NC(=O)[C@H](Cc1c[nH]cn1)NC(=O)[C@@H](NC(=O)[C@H](CC(C)C)NC(=O)[C@H](Cc1ccccc1)NC(=O)[C@H](CCC(=O)O)NC(=O)[C@H](C)NC(=O)[C@H](CC(C)C)NC(=O)[C@H](CCCNC(=N)N)NC(=O)[C@H](CCC(N)=O)NC(=O)[C@@H](NC(=O)[C@H](C)NC(=O)[C@@H]1CSSC[C@H](NC(=O)[C@H](Cc2c[nH]cn2)NC(=O)CC[C@H](NC(=O)CCCCCCCCCCCCCCCCCCC(=O)O)C(=O)O)C(=O)N[C@@H](CC(N)=O)C(=O)N[C@@H]([C@@H](C)O)C(=O)N[C@@H](C)C(=O)N[C@@H]([C@@H](C)O)C(=O)N1)[C@@H](C)O)C(C)C)C(=O)N[C@@H](CC(C)C)C(=O)N[C@@H](CO)C(=O)N[C@@H](CO)C(=O)N[C@H](C(=O)N[C@@H](CC(N)=O)C(=O)N[C@H](C(=O)NCC(=O)N[C@@H](CO)C(=O)N[C@@H](Cc1c[nH]cn1)C(=O)N[C@H](C(=O)N[C@@H](Cc1ccc(O)cc1)C(N)=O)[C@@H](C)O)C(C)C)[C@@H](C)O)
0.394,0.57,X1-HCNTATCATQRLAEFLRHSSSNFGPILSSTNVGSHTY-NH2 (disulfide 2-7; SMILES CC[C@H](C)[C@H](NC(=O)[C@@H]1CCCN1C(=O)CNC(=O)[C@H](Cc1ccccc1)NC(=O)[C@H](CC(N)=O)NC(=O)[C@H](CO)NC(=O)[C@H](CO)NC(=O)[C@H](CO)NC(=O)[C@H](Cc1c[nH]cn1)NC(=O)[C@H](CCCNC(=N)N)NC(=O)[C@H](CC(C)C)NC(=O)[C@H](Cc1ccccc1)NC(=O)[C@H](CCC(=O)O)NC(=O)[C@H](C)NC(=O)[C@H](CC(C)C)NC(=O)[C@H](CCCNC(=N)N)NC(=O)[C@H](CCC(N)=O)NC(=O)[C@@H](NC(=O)[C@H](C)NC(=O)[C@@H]1CSSC[C@H](NC(=O)[C@H](Cc2c[nH]cn2)NC(=O)CC[C@H](NC(=O)CCCCCCCCCCCCCCCCCCC(=O)O)C(=O)O)C(=O)N[C@@H](CC(N)=O)C(=O)N[C@@H]([C@@H](C)O)C(=O)N[C@@H](C)C(=O)N[C@@H]([C@@H](C)O)C(=O)N1)[C@@H](C)O)C(=O)N[C@@H](CC(C)C)C(=O)N[C@@H](CO)C(=O)N[C@@H](CO)C(=O)N[C@H](C(=O)N[C@@H](CC(N)=O)C(=O)N[C@H](C(=O)NCC(=O)N[C@@H](CO)C(=O)N[C@@H](Cc1c[nH]cn1)C(=O)N[C@H](C(=O)N[C@@H](Cc1ccc(O)cc1)C(N)=O)[C@@H](C)O)C(C)C)[C@@H](C)O)
0.225,0.171,"{C20 diacid-γGlu}-SCNTATCATQRLAEFLHHSSNNFGPILPPTNVGSHTY-NH2 (disulfide 2-7; SMILES CC[C@H](C)[C@H](NC(=O)[C@@H]1CCCN1C(=O)CNC(=O)[C@H](Cc1ccccc1)NC(=O)[C@H](CC(N)=O)NC(=O)[C@H](CC(N)=O)NC(=O)[C@H](CO)NC(=O)[C@H](CO)NC(=O)[C@H](Cc1c[nH]cn1)NC(=O)[C@H](Cc1c[nH]cn1)NC(=O)[C@H](CC(C)C)NC(=O)[C@H](Cc1ccccc1)NC(=O)[C@H](CCC(=O)O)NC(=O)[C@H](C)NC(=O)[C@H](CC(C)C)NC(=O)[C@H](CCCNC(=N)N)NC(=O)[C@H](CCC(N)=O)NC(=O)[C@@H](NC(=O)[C@H](C)NC(=O)[C@@H]1CSSC[C@H](NC(=O)[C@H](CO)NC(=O)CC[C@H](NC(=O)CCCCCCCCCCCCCCCCCCC(=O)O)C(=O)O)C(=O)N[C@@H](CC(N)=O)C(=O)N[C@@H]([C@@H](C)O)C(=O)N[C@@H](C)C(=O)N[C@@H]([C@@H](C)O)C(=O)N1)[C@@H](C)O)C(=O)N[C@@H](CC(C)C)C(=O)N1CCC[C@H]1C(=O)N1CCC[C@H]1C(=O)N[C@H](C(=O)N[C@@H](CC(N)=O)C(=O)N[C@H](C(=O)NCC(=O)N[C@@H](CO)C(=O)N[C@@H](Cc1c[nH]cn1)C(=O)N[C@H](C(=O)N[C@@H](Cc1ccc(O)cc1)C(N)=O)[C@@H](C)O)C(C)C)[C@@H](C)O) [N-alpha-[(S)-4-Carboxy-4-(19-carboxynonadecanoylamino)butyryl]-[Ser1,Glu14,His17,His35]-pramlintide]"

# From patent US20130005646A1 (Novo Nordisk, published 2013)
